The target of experiment [1] is IgG1 F127 pre-complexed with dimeric Fel d 1 (human | cat, UniProt P30438 23-92; P30440 18-109). The experiment in a line: BLI; pre-complexed with Fel d 1. In general terms: In BLI a coated tip is dipped into the sample, and binding shifts an interference pattern.
Experiment [2] concerns the target IgG4 F127 pre-complexed with dimeric Fel d 1 (human | cat, UniProt P30438 23-92; P30440 18-109). The experiment in a line: BLI; pre-complexed with Fel d 1.

B1: human recombinant biotinylated FcγRIIb (CD32b) (receptor)
chain: TPAAPPKAVLKLEPQWINVLQEDSVTLTCRGTHSPESDSIQWFHNGNLIPTHTQPSYRFKANNNDSGEYTCQTGQTSLSDPVHLTVLSEWLVLQTPHLEFQEGETIVLRCHSWKDKPLVKVTFFQNGKSKKFSRSDPNFSIPQANHSHSGDYHCTGNIGYTLYSSKPVTITVQAP
modifications: biotin (biotinylated; site not stated)
By koff is commonly meant the rate constant with which the complex falls apart. High values mean a short-lived complex, low ones a long-lived complex. Take B1: the koff was 0.000279 s⁻¹ in experiment [1] and 0.000126 s⁻¹ in experiment [2].

The values above are taken from publication PMC9582512 (2022).
